“Also recorded” adds a separate entry of the source.
What was measured:
[1] = test system: P. aeruginosa PAO1 pBADpsl; test: Inhibition of Psl biofilm formation in static culture (crystal violet); type: cell-based, Pseudomonas aeruginosa; conditions: specificity control
[2] = test system: Psl biofilms of P. aeruginosa PAO1 pBADpsl; test: Dispersal of pre-formed Psl biofilms (crystal violet); type: cell-based, Pseudomonas aeruginosa
A. fumigatus GAG biofilm = test: Inhibition of GAG-dependent A. fumigatus biofilm formation (crystal violet); type: cell-based; conditions: 20 h in Brian media, crystal violet
[3] = Reducing sugar assay on purified GAG; type: biochemical, A. fumigatus
Method: (§1) Crude GAG was isolated from A. fumigatus biofilms. 200 μL GAG aliquots were centrifuged to pellet the gelatinous fraction. The pellets were washed twice with 350 μL PBS. The wash procedure included vortexing for 5 min, sonicated in a bath for 3 min, and manual mixing by pipetting to reach homogeneity. The final pellet was resuspended in 200 μL of PBS. Samples were treated with 10-20 μM protein and incubated at 26° C. Samples were taken at 24 h. GAG hydrolysis was quantified using a reducing sugar assay as described previously (Anthon & Barrett 2002) with slight modifications. Briefly, 20 μL of enzyme reaction was mixed with 20 μL of 0.5 M NaOH and 20 μL of MBTH/DTT solution (1.5 mg/L 3-methyl-2-benzothiazolinone hydrazine (MBTH) and 0.5 mg/L DTT). The samples were incubated at 80° C. for 15 min before the addition of 40 μL of acidic iron reagent (0.5% (FeNH4(SO4)2).12 H2O, 0.5% sulfamic acid, and 0.25 N HCl). Samples were diluted two-fold in water, before the absorbance was quantified at 620 nm.

[4] = Reducing sugar assay, substrate specificity; type: biochemical
Method: as §1, with “[…] […]” for “Crude GAG was isolated from A. fumigatus biofilms. 200 μL GAG aliquots were centrifuged to pellet the gelatinous fraction.”, “GAG hydrolysis was quantified using a reducing sugar assay as described previously (Anthon & Barrett 2002) with slight modifications.” left out

[5] = test system: pre-formed A. fumigatus GAG biofilms; type: cell-based; conditions: crystal violet
[6] = test system: Pel-dependent biofilms from P. aeruginosa PAO1 ΔwspFΔpslpBADpel; test: Pel biofilm dispersal by enzyme in Pluronic F-127 gel; type: cell-based, Pseudomonas aeruginosa; conditions: 100, 200 and 500 μg/mL in 20% Pluronic F-127, 1 h
Method: Poloxamer 407 (trade name Pluronic® F-127 or PF-127) is a hydrophilic non-ionic surfactant has been used as a drug delivery system for a number of routes of administration (Escobar-Chavez et al 2006). A 20% gel of PF-127 was prepared by mixing 1×PBS with Pluronic® F-127 at 4° C. until the polymer was dissolved. PelA47-303 was added at three concentrations; 100 μg/mL, 200 μg/mL and 500 μg/mL to this solution. Pel-dependent biofilms from strain P. aeruginosa PAO1 ΔwspFΔpslpBADpel were formed as described in Example 8. The buffer, gel and gels containing various concentrations of PelA47-303 were applied to the biofilm.

[7] = purified protein
[8] = test system: A549 pulmonary epithelial cell line injured by A. fumigatus; test: Chromium release epithelial cell damage assay; conditions: 0.5 μM, 16 h
Method: The immortalized airway epithelial cell line A549 was loaded with chromium-51 by incubating monolayers grown in 24-well tissue culture plates with 3 mCi of ^51Cr at 37° C. in 5% CO2 for 24 h. Excess chromium was removed by washing with Hank's Balanced Salt Solution (HBSS). […] For testing germ tubes, conidia were grown for 7 h in SAB media at 37° C., then the fungus was collected and resuspended in DF12K media before 0.5 μM of hydrolase was added. The germ tubes were incubated with hydrolase for 1 h before being added to the A549 cells. After 16, 20 and 24 h of co-incubation, an aliquot of the medium above the cells was retrieved and replaced with fresh media. The cells were then lysed with 6 N NaOH and the lysate collected. The ^51Cr content of the medium and lysates was then measured in a gamma counter and the extent of epithelial cell damage was calculated as a function of the degree of ^51Cr release. Each strain was tested in triplicate, and all results were corrected for spontaneous chromium release by uninfected epithelial cells.
The methodology for prevention of epithelial cell damage caused by A. fumigatus using Sph352-298 is identical to that previously described in Example 19 for the use PelA47-303.

[9] = test system: Pel biofilms of P. aeruginosa PAO1 ΔwspFΔpslpBADpel; test: Dispersal of pre-formed Pel biofilms (crystal violet); conditions: 38 μM and 19 μM, 2 h
Text: The methodology to generate pre-formed Pel biofilms is identical to that of Psl biofilms, described in Example 4 with the exception that the strain used is P. aeruginosa PAO1 ΔwspFΔpslpBADpel.

[10] = test system: PNAG-overproducing E. coli biofilms; test: Dispersal of pre-formed PNAG-dependent E. coli biofilms
Method: Bacterial cultures expressing Psl were inoculated as stated above and were grown at 37° C. overnight with shaking at 200 rpm. All cultures were diluted in 1:100 in LB and arabinose was added to a final concentration of 0.5% (w/v) to induce Psl biosynthesis. Media containing the Psl-producing cultures were supplemented with 200 μg/mL ampicillin and 100 μg/mL kanamycin. The cultures were incubated statically for 24 h at 26° C. to allow for biofilm formation. After incubation non-adherent cells and media were removed by washing the plate with deionized water three times. The wells were filled with 95 μL of 100 mM sodium HEPES buffer pH 7.0 followed by 5 μL of varying concentrations of each hydrolytic enzyme (2 nM-5 μM). Reactions were allowed to proceed for up to 60 min at 25° C. on a rotating nutator at which time, the reaction was quenched by washing the plates with deionized water. The wells were stained with 200 μL of 0.1% (w/v) crystal violet for 10 min, and washed with water three times. Crystal violet dye from Psi cultures was solubilized in 100 μL of 95% ethanol for 10 min with rotation, after which time the absorbance was measured at 595 nm using a SpectraMax M2 from Molecular Devices (Sunnyvale, Calif.). The amount of biofilm is proportional to the absorbance from staining with crystal violet (Merritt et al 2005). All reactions were completed in at least triplicate and 100 mM sodium HEPES buffer pH 7.0 was used as an untreated control. The addition of 2.5 mg/mL kanamycin to culture prior to biofilm formation was used as a positive control as no cell growth occurs.
PNAG-overproducing E. coli was grown at 37° C. overnight in LB broth supplement with 200 ug/mL ampicillin and 100 ug/mL kanamycin with shaking at 200 rpm. An E. coli μgaABCD knockout strain was used as a non-biofilm forming control for background straining.

[11] = test system: P. aeruginosa PAO1 ΔwspFΔpslpBADpel biofilms with differentiated HL-60 cells; test: HL-60 neutrophil killing of P. aeruginosa biofilm (CFU plating)
Method: Overnight cultures of P. aeruginosa PAO1 ΔwspFΔpslpBADpel were diluted to an OD600 of 0.05 in LB+0.5% arabinose and inoculated in a 96 well tissue culture-treated plate at a final volume of 100 μl/well. The plate was incubated statically at 28° C. for 20 h. Supernatants were aspirated and 100 μL of phenol red-free RPMI+10% Fetal Bovine Serum (FBS) containing 0.5 μM of PelA47-303 was added. The plate was incubated at room temperature on a Nutator for 1 h. Following pretreatment with hydrolase, 100 μL RPMI+10% FBS containing 6×10^6 differentiated HL-60 cells were added to the wells, and plate was incubated for 90 min at 37° C., 5% CO2. Wells were aspirated and supernatant was diluted between 1/200000 and 1/400000, and plated (50 μl) onto LB agar. To aspirated wells, 200 μL of “disruption solution” (PBS containing 2 μM of PelA47-303 and 2 μM PslG31-442) was added and plate was incubated at room temperature on the Nutator for 1-1.5 h. Wells were aspirated, diluted and plated onto LB agar as above.

[12] = test system: P. aeruginosa PAO1 ΔwspFΔpslpBADpel; test: Inhibition of Pel biofilm formation in static culture (crystal violet); conditions: static culture

B1: PelA47-303: soluble PelA hydrolase domain, residues 47-303, P. aeruginosa PAO1, SEQ ID NO: 12 (protein, listed as Pseudomonas aeruginosa)
chain: GGPSSVAFWYAERPPLAELSQFDWVVLEAAHLKPADVGYLKEQGSTPFAYLSVGEFDGDAAAIADSGLARGKSAVRNQAWNSQVMDLAAPSWRAHLLKRAAELRKQGYAGLFLDTLDSFQLQAEERREGQRRALASFLAQLHRQEPGLKLFFNRGFEVLPELPGVASAVAVESIHAGWDAAAGQYREVPQDDRDWLKGHLDALRAQGMPIVAIDYLPPERRDEARALAARLRSEGYVPFVSTPALDYLGVSDVEVQP
inhibition of Psl biofilm formation (in words) [1]: did not inhibit Psl biofilm formation
dispersal of pre-formed Psl biofilm (in words) [2]: did not result in the loss of the Psl-dependent biofilm
concentration sufficient to prevent GAG biofilm formation (A. fumigatus GAG biofilm): ≥ 2 µM
GAG hydrolysis, reducing ends (in words) ([3]; 10-20 μM protein, 26° C., 24 h): number of reducing ends in solution increased
reducing ends produced relative to Sph352-298 ([3]; under assay conditions): ~2 fold
hydrolysis of chitin and chitosan [4]: not significant over background hydrolysis
dispersal of pre-formed GAG biofilm (in words) [5]: elimination of the GAG biofilm
dispersal of Pel-dependent biofilm by enzyme in gel [6]: able to disperse the biofilm; also recorded: successfully dispersed the biofilm
concentration to which the protein could be concentrated [7]: 8 to 10 mg/mL
epithelial cell injury by A. fumigatus, chromium release [8]: blocked the ability of A. fumigatus to induce pulmonary epithelial cell injury
dispersal of pre-formed Pel biofilm (in words) [9]: successfully dispersed the Pel biofilm; also recorded: biofilm dispersal after 2 hours
dispersal of PNAG-dependent biofilms (in words) [10]: had no affect
degree of microbial killing by HL-60 neutrophil cell line ([11]; 0.5 μM enzyme pretreatment, neutrophils alone approximately 22%): ~42%
bacterial killing relative to neutrophils alone ([11]; enzyme with neutrophils): ~2 fold
enzyme concentration that prevented Pel biofilm formation [12]: 500 nM

From patent publication US11672846B2, “Soluble bacterial and fungal proteins and methods and uses thereof in inhibiting and dispersing biofilm” (priority 2014, dated 2023)
